For assay [1], the target named is T1, recombinant hVISTA ECD multimer (monobiotinylated hVISTA ECD on PE-streptavidin dextramers) (human, UniProt Q9H7M9 33-194, limits assumed, monobiotinylated).
T1 construct: Loaded at a 28:1 molar ratio onto PE-conjugated streptavidin dextramers; also called VISTA multimer; hVISTA-loaded dextramers
T1 sequence (looked up): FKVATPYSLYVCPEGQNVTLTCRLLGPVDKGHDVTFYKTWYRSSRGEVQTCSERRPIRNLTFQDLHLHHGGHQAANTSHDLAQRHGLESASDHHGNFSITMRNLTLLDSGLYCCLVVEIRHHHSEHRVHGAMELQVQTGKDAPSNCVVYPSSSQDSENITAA
The assay can be described thus: flow cytometry, blocking of VISTA multimer binding to activated human CD4+ T cells, pH 6.0. The protocol:
As a control, activated CD4+ T cells were stained with PE-conjugated streptavidin dextramers that were not loaded with hVISTA. The stained cells were washed with HBSS+ MES and acquired on a flow cytometer. Data were analyzed using FlowJo™ software (BD Biosciences). […] Left, from darker gray to lighter, the filled histograms depict binding at pH 7.0, 6.5, 6.4, 6.3, 6.1, and 6.0. Some histograms are labeled with their corresponding pH. Non-VISTA control multimer binding at pH 6.0 is shown as the unfilled histogram. Right, graphed PE mean fluorescence intensities (MFI) of CD4+ T cells stained with hVISTA-loaded dextramers (blue circles) or with non-loaded dextramers (triangles) at various pH.
This blocking assay was performed as described in Example 4.

Assay [2] addresses BSA (Calbiochem catalog #126593) (UniProt P02769 25-607). The assay can be described thus: SPR 25C, Ab on Protein A, pH 6.0 and 7.4. The method, then:
(§1) Protein A (ThermoFisher Scientific catalog #21181) was diluted to 20 ug/ml in 10 mM sodium acetate pH 4.5 and immobilized onto flow cells of a CM3 biosensor following the manufacturer's amine coupling protocol (GE Healthcare), targeting 800 RU immobilization density of Protein A per flow cell. SPR experiments were conducted at 25° C. using PBST (137 mM sodium chloride, 2.7 mM potassium chloride, 10 mM phosphate buffer, 0.05% Tween 20) running buffer at pH 7.4 and 6.0. Antibodies (formatted as IgG1.3 antibodies) were diluted to 50 nM in PBST pH 7.4, and were captured across active biosensor flow cells at 5 ul/min for 60 seconds. […] Two 15 second injections of 10 mM glycine pH 1.5 were used to regenerate the Protein A capture surface between assay cycles. Reference flow cell and 0 nM blank-subtracted sensorgrams were inspected using Biacore® T200 Evaluation Software v.2.0.

Assay [3] deals with avidin (ThermoFisher Scientific catalog #21128) (UniProt P02701 25-152). The assay can be described thus: SPR 25C, Ab on Protein A, pH 6.0 and 7.4. The method, then:
as §1

Chain of avidin (ThermoFisher Scientific catalog #21128) (P02701 25-152 limits assumed): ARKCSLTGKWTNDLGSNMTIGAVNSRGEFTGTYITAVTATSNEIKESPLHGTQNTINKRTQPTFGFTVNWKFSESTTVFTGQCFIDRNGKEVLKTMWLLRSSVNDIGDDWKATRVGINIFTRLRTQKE
Chain of BSA (Calbiochem catalog #126593) (P02769 25-607 limits assumed): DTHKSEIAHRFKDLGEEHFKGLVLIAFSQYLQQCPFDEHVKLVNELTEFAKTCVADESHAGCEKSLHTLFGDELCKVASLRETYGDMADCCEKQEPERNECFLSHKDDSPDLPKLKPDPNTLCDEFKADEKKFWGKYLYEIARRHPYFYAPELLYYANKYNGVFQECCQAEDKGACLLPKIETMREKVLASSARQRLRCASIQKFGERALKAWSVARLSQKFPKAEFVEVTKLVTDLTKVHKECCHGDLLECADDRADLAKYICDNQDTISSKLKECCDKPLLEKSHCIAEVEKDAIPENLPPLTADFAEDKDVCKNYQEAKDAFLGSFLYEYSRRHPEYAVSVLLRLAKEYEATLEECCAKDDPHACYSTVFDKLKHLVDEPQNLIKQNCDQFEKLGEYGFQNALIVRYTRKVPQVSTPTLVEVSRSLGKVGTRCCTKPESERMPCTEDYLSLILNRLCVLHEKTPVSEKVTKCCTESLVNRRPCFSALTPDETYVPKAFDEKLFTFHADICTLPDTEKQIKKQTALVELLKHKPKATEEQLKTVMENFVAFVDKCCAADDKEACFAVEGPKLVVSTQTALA

B1: P1-061029.IgG1.3 (antibody)
heavy: EVQLVESGGGLVQPGKSLRLSCAASGFTLDDYAMHWVRQAPGKGLEWVSGINWNSANIGYADSVKGRFTISRDNAKNSLYLQMNSLRTEDTALYYCAKVPGYSGGWIDAFDVWGQGTMVTVSSASTKGPSVFPLAPSSKSTSGGTAALGCLVKDYFPEPVTVSWNSGALTSGVHTFPAVLQSSGLYSLSSVVTVPSSSLGTQTYICNVNHKPSNTKVDKRVEPKSCDKTHTCPPCPAPEAEGAPSVFLFPPKPKDTLMISRTPEVTCVVVDVSHEDPEVKFNWYVDGVEVHNAKTKPREEQYNSTYRVVSVLTVLHQDWLNGKEYKCKVSNKALPAPIEKTISKAKGQPREPQVYTLPPSREEMTKNQVSLTCLVKGFYPSDIAVEWESNGQPENNYKTTPPVLDSDGSFFLYSKLTVDKSRWQQGNVFSCSVMHEALHNHYTQKSLSLSPG
light: not shown
notes: IgG1.3; also called parent; hIgG1.3f
In the case of B1, in assay [1], the “IC50 (read off the curve)” value was approximately 0.04 µg/mL. Also, the binding result in assay [2] and in assay [3] was “no binding (tested: 100-10 nM; binding defined as >10 RU)” in each case.

B2: P1-068767.IgG1.3 (antibody, V domains shown)
VH: EVQLVESGGGLVQPGKSLRLSCAASGFTLEDYAMHWVRQAPGKGLEWVSGIDWNSENIGYADSVKGRFTISRDNAKNSLYLQMNSLRTEDTALYYCAKVPGYSGGWIDAEDDWGQGTMVTVSS
VL: not shown
notes: IgG1.3; also called hIgG1.3f; printed once as P1-068768
As for B2, the binding result in assay [2] and in assay [3] was “no binding (tested: 100-10 nM; binding defined as >10 RU)” each time.

B3: P1-068761.IgG1.3 (antibody)
heavy: EVQLVESGGGLVQPGKSLRLSCAASGFTLEDEAMHWVRQAPGKGLEWVSGINWNSEEIGYADSVKGRFTISRDNAKNSLYLQMNSLRTEDTALYYCAKVPGYSHGWIDAEDVWGQGTMVTVSSASTKGPSVFPLAPSSKSTSGGTAALGCLVKDYFPEPVTVSWNSGALTSGVHTFPAVLQSSGLYSLSSVVTVPSSSLGTQTYICNVNHKPSNTKVDKRVEPKSCDKTHTCPPCPAPEAEGAPSVFLFPPKPKDTLMISRTPEVTCVVVDVSHEDPEVKFNWYVDGVEVHNAKTKPREEQYNSTYRVVSVLTVLHQDWLNGKEYKCKVSNKALPAPIEKTISKAKGQPREPQVYTLPPSREEMTKNQVSLTCLVKGFYPSDIAVEWESNGQPENNYKTTPPVLDSDGSFFLYSKLTVDKSRWQQGNVFSCSVMHEALHNHYTQKSLSLSPG
light: not shown
notes: IgG1.3; also called hIgG1.3f
For B3, the binding result in assay [2] and in assay [3] was “no binding (tested: 100-10 nM; binding defined as >10 RU)” in each case.

Source of the values: patent US20240092907A1 (Five Prime, published 2024).
